Data taken from US20210301005A1 (Genentech, published 2021).
Residue numbers refer to the chain shown, from its start. Numbers in names are those of the source. Like-named read-outs stand apart in the source and are kept apart here.

Experiments:
[1] = biological target: T1, human TGFβ3, mature dimeric form (human, UniProt P10600 301-412); test: SPR
T1 construct: Peprotech, expressed in E. coli; also called TGFb3
T1 sequence: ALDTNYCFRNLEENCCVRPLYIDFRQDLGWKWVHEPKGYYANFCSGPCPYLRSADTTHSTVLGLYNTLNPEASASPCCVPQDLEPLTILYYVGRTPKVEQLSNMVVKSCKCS

[2] = biological target: T2, human TGFβ2, mature receptor-binding domain (human, UniProt P09858 303-414 (pig entry), The mature TGFβ2 is a disulfide-linked homodimer of this 112-residue chain. The 4A11 epitope spans both monomers (p-1207).); test: SPR
T2 construct: Peprotech; also called TGFb2
T2 sequence: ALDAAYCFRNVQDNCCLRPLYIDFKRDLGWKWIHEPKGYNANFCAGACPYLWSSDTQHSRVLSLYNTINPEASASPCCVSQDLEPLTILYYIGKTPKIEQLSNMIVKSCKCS

[3] = biological target: T3, human TGFβ1, mature receptor-binding domain (human, UniProt P01137 279-390); test: SPR
T3 construct: Peprotech; also called TGFb1

[4] = biological target: T1, human TGFβ3, mature dimeric form; test: cell-based or functional assay
[5] = biological target: T2, human TGFβ2, mature receptor-binding …; test: cell-based or functional assay
[6] = biological target: T3, human TGFβ1, mature receptor-binding …; test: cell-based or functional assay
[7] = biological target: T1, human TGFβ3, mature dimeric form; test: BIAcore T200
[8] = biological target: T2, human TGFβ2, mature receptor-binding …; test: BIAcore T200
[9] = biological target: T1, human TGFβ3, mature dimeric form; test: BIAcore T200; remark: listed apart in the source
Method: (§1) For binding affinity determinations of all humanized 2A10 antibodies, Surface Plasmon Resonance (SPR) measurement with a BIAcore™-T200 instrument was used. Briefly, series S CM5 biosensor chip with protein A was first applied to capture each humanized 2A10 variant to achieve approximately 100 response units (RU) on each flow cell, following by injection of 3-fold serial dilutions of human TGFβ1, TGFβ2 or TGFβ3 (0.02 nM to 5 nM) in HBS-EP buffer (0.01M HEPES pH 7.4, 0.15M NaCl, 3 mM EDTA and 0.05% v/v surfactant P20) at 25° C. with a flow rate of 50 μl/min for kinetics measurement. Association rates (ko.) and dissociation rates (koff) were calculated using a simple one-to-one Langmuir binding model (BIAcore T200 evaluation software version 2.0) to determine the equilibrium dissociation constant (KD), which was calculated as the ratio koff/kₒₙ.

[10] = biological target: T2, human TGFβ2, mature receptor-binding …; test: BIAcore T200; remark: listed apart in the source
Method: as §1

[11] = biological target: T1, human TGFβ3, mature dimeric form; test: cell-based or functional assay; remark: listed apart in the source
[12] = biological target: T2, human TGFβ2, mature receptor-binding …; test: cell-based or functional assay; remark: listed apart in the source
[13] = biological target: T3, human TGFβ1, mature receptor-binding …; test: cell-based or functional assay; remark: listed apart in the source
[14] = biological target: T1, human TGFβ3, mature dimeric form; test: cell-based or functional assay; remark: listed apart in the source
[15] = biological target: T2, human TGFβ2, mature receptor-binding …; test: cell-based or functional assay; remark: listed apart in the source
[16] = biological target: T3, human TGFβ1, mature receptor-binding …; test: cell-based or functional assay; remark: listed apart in the source
[17] = biological target: T1, human TGFβ3, mature dimeric form; test: BIAcore T200; remark: listed apart in the source
Method: as §1

[18] = biological target: T2, human TGFβ2, mature receptor-binding …; test: BIAcore T200; remark: listed apart in the source
Method: as §1

[19] = biological target: T1, human TGFβ3, mature dimeric form; test: cell-based or functional assay; remark: listed apart in the source
[20] = biological target: T2, human TGFβ2, mature receptor-binding …; test: cell-based or functional assay; remark: listed apart in the source
[21] = biological target: T1, human TGFβ3, mature dimeric form; test: cell-based or functional assay; remark: listed apart in the source
[22] = biological target: T2, human TGFβ2, mature receptor-binding …; test: cell-based or functional assay; remark: listed apart in the source
[23] = biological target: T3, human TGFβ1, mature receptor-binding …; test: cell-based or functional assay; remark: listed apart in the source
[24] = biological target: T1, human TGFβ3, mature dimeric form; test: BIAcore T200; remark: listed apart in the source
Method: as §1
(§2) Binding affinity determinations of all humanized 4A11 antibodies were performed using SPR measurement with a BIAcore™-T200 instrument, as described above in Example 6 ([…]).

[25] = biological target: T2, human TGFβ2, mature receptor-binding …; test: BIAcore T200; remark: listed apart in the source
Method: as §1, §2

T3 sequence (P01137 279-390 limits assumed): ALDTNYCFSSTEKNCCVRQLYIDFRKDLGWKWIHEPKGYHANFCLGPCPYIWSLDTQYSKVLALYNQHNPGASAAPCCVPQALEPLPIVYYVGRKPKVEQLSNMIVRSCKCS

B1: 1D11 (antibody, V domains shown)
VH: QVQLQQSGPELVRPGASVKLSCKASGYIFITYWMNWVKQRPGQGLEWIGQIFPASGSTNYNEMFEGKATLTVDTSSSTAYMQLSSLTSEDSAVYYCARGDGNYALDAMDYWGQGTSVTVSS
VL: DIVLTQSPASLAVSLGQRATISCRASESVDSYGNSFMHWYQQKSGQPPKLLIYLASNLESGVPARFSGSGSRTDFTLTIDPVEADDAATYYCQQNNEDPLTFGAGTKLEIK
notes: also called pan-TGFβ antibody 1D11
With B1 the Kd [1] was 0.007 nM, the Kd [2] was 0.009 nM and the Kd [3] was 0.038 nM. For the same binder, the “Blocking IC50” value [4] was 0.04 nM, the “Blocking IC50” value [5] was 3.6 nM and the “Blocking IC50” value [6] was 0.5 nM.

B2: h2A10.v1 (antibody, human IgG1, kappa, N297G, V domains shown)
VH: EVQLVESGGGLVQPGPSLRLSCTASGFDFNSYGMSWVRQAPGKGLELVADIVSKTYNYTTYYSDSVKDRFTISRDDSKSIVYLQMNSLKTEDTAVYYCTVAPGGSFDYWGQGTLVTVSS
VL: DIQLTQSPSSLSASVGDRVTITCRASQSVSISRFNLMHWYQHKPGKQPKLLIYRASNLASGIPSRFSGSGSGTDFTLTISSLQPEDFATYYCQHSRESPWTFGGGTKVEIKR
notes: also called humanized 2A10 version 1
B2: binds [7]; binds [8].

B3: h2A10.v2.N54Q (antibody, human IgG1, kappa, N297G, V domains shown)
VH: B2 VH with V5L, P16G, T23A, N57Q, I80T, K89R, T90A
VL: B2 VL
B3 was tested, and the “fold drop in TGFβ3 binding against h2A10.v2” value [7] was under 2 fold, the Kd [9] was 0.0025 nM and the Kd [10] was 0.378 nM. The “HEKBlue TGFβ blocking IC50” value [11] was 0.01 nM, the “HEKBlue TGFβ blocking IC50” value [12] was over 200 nM and the “HEKBlue TGFβ blocking IC50” value [13] was over 200 nM.

B4: h2A10.v2.N54S (antibody, human IgG1, kappa, N297G, V domains shown)
VH: B2 VH with V5L, P16G, T23A, N57S, I80T, K89R, T90A
VL: B2 VL
In the case of B4, the “fold drop in TGFβ3 binding against h2A10.v2” value [7] is reported as under 2 fold, the Kd [9] is reported as 0.0024 nM and the Kd [10] is reported as 0.425 nM. For the same binder, the “HEKBlue TGFβ blocking IC50” value [11] was 0.01 nM, the “HEKBlue TGFβ blocking IC50” value [12] was over 200 nM and the “HEKBlue TGFβ blocking IC50” value [13] was over 200 nM.

B5: h2A10.v2.T56A (antibody, human IgG1, kappa, N297G, V domains shown)
VH: B2 VH with V5L, P16G, T23A, T59A, I80T, K89R, T90A
VL: B2 VL
For B5, the Kd [9] was 0.001 nM, the Kd [10] was 0.247 nM and the “HEKBlue TGFβ blocking IC50” value [11] was 0.01 nM. For the same binder, the “HEKBlue TGFβ blocking IC50” value [12] was over 200 nM and the “HEKBlue TGFβ blocking IC50” value [13] was over 200 nM.

B6: h2A10.v3 (antibody, human IgG1, kappa, N297G, V domains shown)
VH: B2 VH with V5L, P16G, T23A, A49S, N57S, S79N, I80T, V81L, K89R, T90A
VL: B2 VL with H42Q, Q47A, I62V
notes: human IgG1
For B6, the “HEKBlue TGFβ blocking IC50” value [14] was 0.05 nM, the “HEKBlue TGFβ blocking IC50” value [15] was over 200 nM and the “HEKBlue TGFβ blocking IC50” value [16] was over 200 nM. It also gave a Kd [17] of 0.0026 nM and a Kd [18] of 0.482 nM.

B7: h2A10.v4 (antibody, human IgG1, kappa, N297G, V domains shown)
VH: B2 VH with V5L, P16G, T23A, A49S, T59A, S79N, I80T, V81L, K89R, T90A
VL: B2 VL with H42Q, Q47A, I62V
notes: human IgG1
In the case of B7, the “HEKBlue TGFβ blocking IC50” value [14] is reported as 0.01 nM, the “HEKBlue TGFβ blocking IC50” value [15] is reported as over 200 nM and the “HEKBlue TGFβ blocking IC50” value [16] is reported as over 200 nM. The Kd [17] was 0.0019 nM and the Kd [18] was 0.3 nM.

B8: 21D1 (antibody, V domains shown)
VH: QVQLVQSGAEVKKPGASVKVSCKASGYTFTDYNIHWVRQAPGQGLEWMGYIYPYDGETGYNQKFKSRVTMTTDTSTSTAYMELRSLRSDDTAVYYCARGYRWFAYWGQGTLVTVSS
VL: DIQMTQSPSSLSASVGDRVTITCRASSSVPYMHWFQQKPGKAPKSLIYATSNPAYGVPSRFSGSGSGTDFTLTISSLQPEDFATYYCQQWDLNPPAFGQGTKLEIKR
B8 was tested, and the Kd [3] was 0.008 nM, the “Blocking IC50” value [4] was over 200 nM and the “Blocking IC50” value [5] was over 200 nM. For the same binder, the “Blocking IC50” value [6] was 0.013 nM.

B9: h4A11.v7.11 (antibody, human IgG1, kappa, N297G, V domains shown)
VH: EQQLQESGPGLVKPSETLSLTCTVTGFSLSSYTVNWVRQPAGKGLEWIGYISYGGSAYYASWANGRFTISVDSSKNQVSLKLSSVTAADTAVYFCARHMQVGGAPTGSMAAFDPWGPGTLVTVSS
VL: EAVLTQSPGTLSLSPGERATLSCQSSQSVYNNNYLSWFQQKPGQPPRLLIYGASTLTSGVPDRFSGSGSGTDFTLTISRLEPEDFAVYYCAGGYSGSSDKYAFGGGTKVEIKR
For B9, the “fold drop in binding against h4A11.v7” value [7] was 2 fold, the “fold drop in binding against h4A11.v7” value [8] was 6 fold and the “fold loss of blocking against h4A11.v7” value [19] was 118 fold. The “fold loss of blocking against h4A11.v7” value [20] was over 2000 fold, the “HEKBlue TGFβ blocking IC50” value [21] was 3.53 nM and the “HEKBlue TGFβ blocking IC50” value [22] was over 200 nM. For the same binder, the “HEKBlue TGFβ blocking IC50” value [23] was over 200 nM, the Kd [24] was 0.0214 nM and the Kd [25] was 0.0401 nM.

B10: h4A11.v7.13 (antibody, human IgG1, kappa, N297G, V domains shown)
VH: B9 VH with V71K, V78F
VL: B9 VL
For B10, the “fold drop in binding against h4A11.v7” value [8] was 2.5 fold, the “HEKBlue TGFβ blocking IC50” value [21] was 0.05 nM and the “HEKBlue TGFβ blocking IC50” value [22] was 0.03 nM. The “HEKBlue TGFβ blocking IC50” value [23] was over 200 nM, the Kd [24] was 0.0089 nM and the Kd [25] was 0.0159 nM.

B11: h4A11.v7.5 (antibody, V domains shown)
VH: B9 VH with V71K
VL: EAVLTQSPGTLSLSPGERATLSCQSSQSVYNNNYLSWYQQKPGQPPRLLIYGASTLTSGVPDRFSGSGSGTDFTLTISRLEPEDFAVYYCAGGYSGSSDKYAFGGGTKVEIK
In the case of B11, the “fold drop in binding against h4A11.v7” value [8] is reported as about 2 fold, the “fold loss of blocking against h4A11.v7” value [20] is reported as about 2 fold and the “HEKBlue TGFβ blocking IC50” value [21] is reported as 0.04 nM. For the same binder, the “HEKBlue TGFβ blocking IC50” value [22] was 0.16 nM, the “HEKBlue TGFβ blocking IC50” value [23] was over 200 nM and the Kd [24] was 0.0093 nM. It also gave a Kd [25] of 0.0092 nM.
